Reference: EP4725969A1 (Latticon (Suzhou) Biopharmaceuticals Co., Ltd., dated 2024)
Positions count from the first letter of the chain named. Each block holds one binder with its values, some of them ahead of it.

Columns and labels:
[1] = target: T1, recombinant human HER4 extracellular domain (human, UniProt Q15303 26-651); assay: ELISA, coated HER4 ECD
T1 construct: extracellular domain
T1 sequence (looked up): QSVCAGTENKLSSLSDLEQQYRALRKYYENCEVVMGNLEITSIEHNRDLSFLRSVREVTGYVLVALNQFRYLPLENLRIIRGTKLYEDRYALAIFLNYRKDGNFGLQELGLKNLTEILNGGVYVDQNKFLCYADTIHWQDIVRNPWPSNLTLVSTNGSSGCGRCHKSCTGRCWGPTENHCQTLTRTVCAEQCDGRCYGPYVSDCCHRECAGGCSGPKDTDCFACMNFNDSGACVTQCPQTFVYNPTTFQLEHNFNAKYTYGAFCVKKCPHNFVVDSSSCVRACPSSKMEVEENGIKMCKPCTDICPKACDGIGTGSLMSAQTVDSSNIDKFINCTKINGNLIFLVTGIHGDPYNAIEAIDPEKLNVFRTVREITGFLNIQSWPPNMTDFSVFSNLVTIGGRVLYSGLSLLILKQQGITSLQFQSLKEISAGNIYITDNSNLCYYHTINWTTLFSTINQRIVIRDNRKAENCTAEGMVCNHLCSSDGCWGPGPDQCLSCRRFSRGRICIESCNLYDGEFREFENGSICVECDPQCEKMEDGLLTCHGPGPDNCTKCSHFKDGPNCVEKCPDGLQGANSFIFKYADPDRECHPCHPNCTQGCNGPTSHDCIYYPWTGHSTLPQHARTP

FcγRI = target: T2, FcγRI (UniProt P12314 16-288, limits assumed); assay: BLI (ForteBio)
T2 construct: also called CD64

FcγRIIIa (176F) = FcγRIIIa (176F) (UniProt P08637 17-208); assay: BLI (ForteBio)
FcγRIIIa (176V) = FcγRIIIa (176V) (UniProt P08637 17-208, limits assumed); assay: BLI (ForteBio)
FcγRIIa (167H) = target: T3, FcγRIIa (167H) (UniProt P12318 36-218, limits assumed); assay: BLI (ForteBio)
T3 sequence (looked up): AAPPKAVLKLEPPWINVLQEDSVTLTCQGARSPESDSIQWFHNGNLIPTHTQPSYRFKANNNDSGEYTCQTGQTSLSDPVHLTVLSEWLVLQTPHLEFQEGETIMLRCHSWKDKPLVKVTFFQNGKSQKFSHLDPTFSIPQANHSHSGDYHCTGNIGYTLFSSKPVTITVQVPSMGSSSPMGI

[2] = target: T4, recombinant human EGFR extracellular domain (human, UniProt P00533 25-645); assay: ELISA, coated EGFR ECD
T4 construct: extracellular domain

[3] = target: T5, recombinant human HER3 extracellular domain (human, UniProt P21860 20-643); assay: ELISA, coated HER3 ECD
T5 construct: extracellular domain

[4] = target: T6, recombinant human HER2 extracellular domain protein (human, UniProt P04626 23-652); assay: BLI, Protein A capture
T6 construct: range 23-652; Range is printed for the immunogen/panning protein; also called ErbB2; recombinant HER2 protein

[5] = target: T6, recombinant human HER2 extracellular …; assay: BLI, Protein A capture; remark: listed apart in the source
[6] = target: T6, recombinant human HER2 extracellular …; assay: BLI, Protein A capture; remark: listed apart in the source
[7] = target: T6, recombinant human HER2 extracellular …; assay: BLI, Protein A capture; remark: listed apart in the source
[8] = target: T7, human HER2 expressed on tumor cells (human, UniProt P04626 23-1255); assay: flow cytometry, BT474 cells
T7 construct: whole, on cells; Cell line is named in each row's assay

[9] = target: T7, human HER2 expressed on tumor cells; assay: flow cytometry, RT-112 cells
[10] = target: T6, recombinant human HER2 extracellular …; assay: BLI (ForteBio)
[11] = target: T7, human HER2 expressed on tumor cells; assay: flow cytometry, BT474 cells, 10 µg/mL

T2 sequence (P12314 16-288 limits assumed): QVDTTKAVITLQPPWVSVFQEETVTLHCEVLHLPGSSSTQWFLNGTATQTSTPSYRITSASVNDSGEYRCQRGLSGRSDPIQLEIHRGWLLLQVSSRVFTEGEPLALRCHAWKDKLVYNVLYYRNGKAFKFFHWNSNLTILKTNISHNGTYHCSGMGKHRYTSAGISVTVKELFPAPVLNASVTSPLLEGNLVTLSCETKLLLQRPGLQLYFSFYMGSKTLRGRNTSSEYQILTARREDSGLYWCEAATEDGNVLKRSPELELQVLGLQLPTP
Sequence of FcγRIIIa (176F) (P08637 17-208 limits assumed): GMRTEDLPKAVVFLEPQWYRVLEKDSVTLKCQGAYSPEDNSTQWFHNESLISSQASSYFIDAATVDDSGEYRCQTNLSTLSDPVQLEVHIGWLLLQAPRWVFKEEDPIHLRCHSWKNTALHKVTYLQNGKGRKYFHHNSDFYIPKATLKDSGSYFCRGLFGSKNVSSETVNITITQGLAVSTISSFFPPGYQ
Sequence of FcγRIIIa (176V) (P08637 17-208 F176V limits assumed): as the sequence (P08637 17-208 limits assumed) above, with F160V counted along it

B4: Hu2126-H1K1 (antibody, human IgG1, V domains shown)
VH: QVQLQESGPGLVKPSETLSLTCTASGYTFTDYSMHWVRQPPGKGLEWMGWINTETGEPTYADDFKGRFTFSLDTSKNQASLKLSSVTAADTAVYFCVRVGRYDYAMDYWGQGTTVTVSS
VL: DIQMTQSPSSLSASVGDRVTITCKASQDVYTAVAWYQQKPGKAPKLLINSASYRYTGVPSRFSGSGSGTDFTLTISSLQPEDFATYYCQQHYSTPPTFGGGTKVEIK
Kd [5]: 19.1 nM | koff [5]: 0.0018 s⁻¹ | kon [5]: 94500 M⁻¹ s⁻¹

B5: Hu2126-H2K1 (antibody, human IgG1, V domains shown)
VH: QVQLVQSGSELKKPGASVKVSCKASGYTFTDYSMHWVRQAPGQGLEWMGWINTETGEPTYADDFKGRFVFSLDTSVSTAYLQISSLKAEDTAVYFCVRVGRYDYAMDYWGQGTTVTVSS
VL: B4 VL
Kd [5]: 6.89 nM | koff [5]: 0.000581 s⁻¹ | kon [5]: 84300 M⁻¹ s⁻¹ | Kd [6]: 4.71 nM | koff [6]: 0.000469 s⁻¹ | kon [6]: 99600 M⁻¹ s⁻¹

B7: Hu2117HK (Fc fusion)
scFv: EVQLVESGGGLVQPGGSLRLSCAASGFTYSSYGMSWVRQAPGKGLEWVASISGGGSYTKYPDSVKGRFTISRDNSKNTLYLQMNSLRAEDTAVYYCARDYAGFFDVWGQGTLVTVSSGGGGSGGGGSGGGGSDIQMTQSPSSLSASVGDRVTITCRSSQSLVHSNGNTYLHWYQQKPGKAPKLLIYKVSNRFSGVPSRFSGSGSGTDFTLTISSLQPEDFATYFCSQSTHVPYTFGQGTKVEIK
notes: Hu2117-H1 + Hu2117-K1; also called hu2117-H1K1; humanized single-chain antibody Hu2117HK; not shown: human IgG1 Fc
Kd [7]: 11.4 nM | koff [7]: 0.00105 s⁻¹ | kon [7]: 91700 M⁻¹ s⁻¹ | EC50 [8]: 0.107 µg/mL | EC50 [9]: 0.0593 µg/mL | Kd [10]: 178 nM | koff [10]: 0.00296 s⁻¹ | kon [10]: 16600 M⁻¹ s⁻¹

B9: Hu2117-HK309 (Fc fusion)
scFv: B7 scFv with S56N, T58A, P61V, S63K, A101V, G166R
notes: scFv-hIgG1 Fc; not shown: human IgG1 Fc
EC50 [8]: 0.103 µg/mL | EC50 [9]: 0.0956 µg/mL

B10: Hu2117-HK304 (Fc fusion)
scFv: B7 scFv with S56N, T58A, P61V, D62P, A101V, G166R
notes: as for B9
EC50 [8]: 0.0922 µg/mL | EC50 [9]: 0.0622 µg/mL

B11: Hu2117-HK303 (Fc fusion)
scFv: B7 scFv with S56N, T58A, P61V, D62E, A101V, G166R
notes: as for B9
EC50 [8]: 0.101 µg/mL | EC50 [9]: 0.129 µg/mL

B12: Hu2117-HK203 (Fc fusion)
scFv: B7 scFv with S56N, T58A, P61V, A101V, G166R
notes: as for B9
EC50 [8]: 0.102 µg/mL | EC50 [9]: 0.144 µg/mL

B13: Hu2117-HK310 (Fc fusion)
scFv: B7 scFv with S56N, T58A, P61V, S63N, A101V, G166R
notes: as for B9
EC50 [8]: 0.103 µg/mL | EC50 [9]: 0.157 µg/mL

Other lines, results leading:

binding result [1]: no binding | binding result (FcγRI): no binding | binding result (FcγRIIIa (176F)): no binding | binding result (FcγRIIIa (176V)): no binding | binding result (FcγRIIa (167H)): no binding | binding result [2]: no binding | binding result [3]: no binding
B1: 04BS-1123-ST06 (bispecific antibody)
heavy: QVQLVESGGGLVQPGGSLRLSCAASGFTYSSYGMSWVRQAPGKGLEWVASISGGGSYTKYVDKVKGRFTISRDNSKNTLYLQMNSLRAEDTAVYYCARDYVGFFDVWGQGTLVTVSSGGGGSQVQLVQSGSELKKPGASVKVSCKASGYTFTDYSMHWVRQAPGQGLEWMGWINTGTGEPTYADDFKGRFTISRDTSKSTAYLQISSLKAEDTAVYYCVRVGRYDYAMDYWGQGTTVTVSSASTKGPSVFPLAPSSKSTSGGTAALGCLVKDYFPEPVTVSWNSGALTSGVHTFPAVLQSSGLYSLSSVVTVPSSSLGTQTYICNVNHKPSNTKVDKRVEPKSCDKTHTCPPCPAPEFEGGPSVFLFPPKPKDTLMISRTPEVTCVVVDVSHEDPEVKFNWYVDGVEVHNAKTKPREEQYNSTYRVVSVLTVLHQDWLNGKEYKCKVSNKALPASIEKTISKAKGQPREPQVYTLPPSRDELTKNQVSLTCLVKGFYPSDIAVEWESNGQPENNYKTTPPVLDSDGSFFLYSKLTVDKSRWQQGNVFSCSVMHEALHNHYTQKSLSLSPGK
light: DIQMTQSPSSLSASVGDRVTITCRSSQSLVHSNRNTYLHWYQQKPGKAPKLLIYKVSNRFSGVPSRFSGSGSGTDFTLTISSLQPEDFATYFCSQSTHVPYTFGQGTKVEIKGGGGSGGGGSGGGGSDIQMTQSPSSLSASVGDRVTITCRASQDVYTAVAWYQQKPGKAPKLLINLASSRPTGVPSRFSGSGSGTDFTLTISSLQPEDFATYYCQQYYSTPPTFGGGTKVEIKRTVAAPSVFIFPPSDEQLKSGTASVVCLLNNFYPREAKVQWKVDNALQSGNSQESVTEQDSKDSTYSLSSTLTLSKADYEKHKVYACEVTHQGLSSPVTKSFNRGEC
notes: also called anti-HER2 biparatopic antibody 04BS-1123-ST06

binding result [1]: no binding | binding result [2]: no binding | binding result [3]: no binding | Kd [4]: 3.44 nM | koff [4]: 0.000949 s⁻¹ | kon [4]: 276000 M⁻¹ s⁻¹
B2: mAb2128 (antibody, V domains shown)
VH: EVQLQQSGPELVKPGASVKIPCKASGYTFTDYNMDWVKQSHGKSLEWIGDINPNNGGTIYNQKFKGKATLTVDKSSSTAYMELRSLTSEDTAVYYCARYGSGYGGFAYWGQGTLVTVSS
VL: DIVLTQSPTTMAASPGEKITITCSASSSISSNYLHWYQQKPGFSPKLLIYRTSNLASGVPARFSGSGSGTSYSLTIGTMEAEDVATYYCQQGSSIPRTFGGGTKLEIK
notes: Chimeric human IgG1/Cκ

binding result [1]: no binding | binding result [2]: no binding | binding result [3]: no binding | Kd [4]: 4.28 nM | koff [4]: 0.00166 s⁻¹ | kon [4]: 388000 M⁻¹ s⁻¹
B3: mAb2117 (antibody, V domains shown)
VH: EVKIEESGGGLVKPGGSLKLSCAASGFTYSSYGMSWVRQTPEKRLEWVASISGGGSYTKYPDSVKGRFTISRDNAKNHLYLQMSSLRSEDTALYYCARDYAGFFDVWGAGTTVTVSS
VL: DVVLTQTPLSLPVSLGDQASISCRSSQSLVHSNGNTYLHWYLQKPGQSPKLLIYKVSNRFSGVPDRFSGSGSGTDFTLKISRVEAEDLGVYFCSQSTHVPYTFGGGTKLEIK
notes: also called anti-HER2 chimeric antibody mAb2117

binding result [1]: no binding | binding result [2]: no binding | Kd [5]: 5.2 nM | koff [5]: 0.000502 s⁻¹ | kon [5]: 96600 M⁻¹ s⁻¹ | binding result [3]: no binding | Kd [4]: 1.44 nM | koff [4]: 9.67e-05 s⁻¹ | kon [4]: 67300 M⁻¹ s⁻¹
B6: mAb2126 (antibody, human IgG1, V domains shown)
VH: QIQLAQSGPELKKPGETVKISCKASGYTFTDYSMHWVKQAPGKYLKWMGWINTETGEPTYADDFKGRFAFSLETSANTAYLQINNLKNEDTATYFCVRVGRYDYAMDYWGQGTSVTVSS
VL: DIVMTQSHKFMSTSVGDRVSITCKASQDVYTAVAWYQQKPGQSPKLLINSASYRYTGVPDRFTGSGSGTDFTFTISSVQAEDLAVYYCQQHYSTPPTFGGGTKLEIK
notes: also called anti-HER2 chimeric antibody mAb2126

binding result [11]: binds
B8: Hu2117-HK201 (Fc fusion)
scFv: B7 scFv with S56N, T58A, P61V, G166R
notes: as for B9
